Patent publication US20020094951A1, “DENTAL REMEDIES CONTAINING PTH” (priority 1997, published 2002)

B1: human PTH (1-84) (protein, UniProt P01270 32-115, looked up)
Parathyroid hormone: SVSEIQLMHNLGKHLNSMERVEWLRKKLQDVHNFVALGAPLAPRDAGSQRPRKKEDNVLVESHEKSLGEADKADVNVLTKAKSQ
modifications: Parathyroid hormone
notes: human parathyroid hormone consisting of 84 amino acid residues

Legend:
[1] = test system: ovariectomized (OVX) female SD rats; experiment: Bone density by DXA in ovariectomized (OVX) rats after hormone administration (Example 1); format: in vivo, rat; settings: for bone density of the ramal portion / bone density of the femur / bone density of the lumbar vertebrae: four times a week for 10 weeks; for bone density of the ramal portion: FIG. 2; for bone density of the femur / bone density of the lumbar vertebrae: DXA
Experimental: Forty female SD rats were used. At the age of 20 weeks after birth, 35 of the animals were subjected to OVX (ovariectomy) and the remaining five were subjected to Sham operation. Starting at the age of 30 weeks when bone resorption progressed fully, animals of the OVX group were subcutaneously administered with hormones for 10 weeks on a four-times-a-week basis. Five of the group administered with human PTH (1-84) were administered a dose of 10 μg/kg body weight, another five a dose of 40 μg/kg body weight and the last five a dose of 150 μg/kg body weight. The group administered with 17β-estradiol as estrogen consisted of 5 rats, which were administered a dose of […] body weight. Ten rats were administered with both hormones, 17β-estradiol at a dose of 10 μg/kg body weight and human PTH (1-84) at different doses of 10 μg/kg body weight (in 5 rats) and 150 μg/kg body weight (in the other five). After the hormone administration and at the age of 40 weeks after birth, the mandibular bone, femur and lumbar vertebrae were extracted and measured for bone density and bone mineral content by DXA (Aloca). Measurement on the mandibular bone was conduced at two sites, the alveolar bone portion including the posterior teeth and the ramal portion.

[2] = test system: ovariectomized female SD rats with tooth removal; experiment: Bone density and bone mineral content by DXA in OVX rats with upper jaw posterior teeth extracted (Example 2); format: in vivo, rat; settings: 150 μg/kg body weight s.c., four times a week for 10 weeks
Excerpt: Twenty-three female SD rats (body weight; 230-250 g) were used. At the age of 20 weeks after birth, 15 of the animals were subjected to OVX (ovariectomy) and the remaining eight were subjected to Sham operation. Then, at the age of 22 weeks after birth, ten of the ovariectomized rats and four in the Sham operation group had the posterior teeth in the upper jaw extracted. Starting at the age of 30 weeks when bone resorption progressed fully, five of the ovariectomized rats that had the posterior teeth in the upper jaw extracted were subcutaneously administered with human PTH (1-84) at a dose of 150 μg/kg body weight for 10 weeks on a four-time-a-week basis. After the administration of human PTH (1-84) and at the age of 40 weeks after birth, the whole mandibular bone was extracted and the bone densities and bone mineral contents in the whole mandibular bone and the mandibular molar portion were measured by DXA (Aloca).

[3] = OVX rats, 10, 40, 150 μg/kg body weight s.c.
[4] = OVX rats, dose of 150 μg/kg body weight s.c.

Molecule | bone density of the ramal portion ([1]; OVX rats, s.c.) | bone density of the mandibular alveolar bone portion ([1]; OVX rats, 150 μg/kg body weight human PTH (1-84) alone, s.c., 10 weeks, FIG. 1) | bone density of the femur [1, 3] | bone density of the lumbar vertebrae [1, 3] | bone density of the femur [1, 4] | bone density of the lumbar vertebrae [1, 4] | bone density in the mandibular bone (summary) ([1]; ovariectomized aged female rats, summary statement) | bone mineral content of whole mandibular bone ([2]; FIG. 3) | bone mineral content of the mandibular molar portion ([2]; FIG. 4)
C[C@]12CC[C@@H]3c4ccc(O)cc4CC[C@H]3[C@@H]1CC[C@@H]2O [17β-estradiol, estra-1,3,5(10)-trien-3,17β-diol, reference compound] | did not recover | – | – | – | – | – | – | – | –
B1 | did not recover | significant increases over the OVX group and returned to the level for the Sham operation group | increased in a dose-dependent manner | increased in a dose-dependent manner | almost recovered to the level for the Sham operation group | almost recovered to the level for the Sham operation group | a distinct improvement in bone density | increased noticeably | increased noticeably
